{"source": "paper PMC12102759", "assay_in_all_cases": "fluorescence polarisation", "key": {"[1]": {"biological_target": "FITC-labeled MBOAT1 probe peptide FITC-… (human)"}, "[2]": {"biological_target": "FITC-labeled PRDM14 probe peptide FITC-… (human)"}, "[3]": {"biological_target": "FITC-labeled NCOA2 probe peptide FITC-… (human)"}, "[4]": {"biological_target": "FITC-labeled NKRF probe peptide FITC-…"}, "[5]": {"biological_target": "SARS‐CoV‐2 NSP3 UBl1 domain (819–925), tag cleaved, for FP (SARS-CoV-2) (UniProt P0DTD1)"}, "[6]": {"biological_target": "SARS‐CoV‐2 NSP9 (4141–4253), tag cleaved, for FP (SARS-CoV-2) (UniProt P0DTD1)"}, "[7]": {"biological_target": "SARS‐CoV‐2 NSP3 SUD‐M domain (1356–1493), tag cleaved, for FP (SARS-CoV-2) (UniProt P0DTD1)"}}, "data": [{"substance": "SARS-CoV-2 NSP3 ADRP domain (domain or fragment)", "values": [{"measurement": "Kd", "setting": "[1]", "value": 51, "unit": "µM"}]}, {"substance": "SARS-CoV-2 NSP3 SUD-M domain (domain or fragment)", "values": [{"measurement": "Kd", "setting": "[2]", "value": 23, "unit": "µM"}]}, {"substance": "SARS-CoV-2 NSP3 UBl1 domain (domain or fragment)", "values": [{"measurement": "Kd", "setting": "[3]", "value": 67, "unit": "µM"}]}, {"substance": "SARS-CoV-2 non-structural protein 9 (NSP9) (natural protein)", "values": [{"measurement": "Kd", "setting": "[4]", "value": 15.5, "unit": "µM"}]}, {"substance": "wild‐type NCOA2_(1073–1088) peptide (from UniProt Q15596 1073-1088)", "values": [{"measurement": "Kd", "setting": "[5]", "value": 39, "unit": "µM"}]}, {"substance": "wild‐type NOTCH4 peptide (synthetic)", "values": [{"measurement": "Kd", "setting": "[6]", "value": 72, "unit": "µM"}]}, {"substance": "wild‐type PRDM14 peptide (synthetic)", "values": [{"measurement": "Kd", "setting": "[7]", "value": 74, "unit": "µM"}]}]}
